This note sets out measurements from publication PMC7817833.

In experiment [1] the target is 14-3-3γ (UniProt P61981). Description: co-immunoprecipitation of Myc-ENDOG, western blot. To be noted: reference: Myc-ENDOG wild type; sites T128,S288.
For experiment [2], the target named is 14-3-3γ (UniProt P61981). Description: co-immunoprecipitation, western blot. To be noted: reference: wild-type ENDOG; sites T128,S288.

As for “ENDOG (Endonuclease G) (from UniProt Q14249) Myc-ENDOG-AA (T128A/S288A)”, the “binding against the reference” value in the experiment with 14-3-3γ [1] is given as “weaker”.
Turning to “ENDOG (Endonuclease G) (from UniProt Q14249) T128A/S288A (AA)”, the “binding against the reference” value in the experiment with 14-3-3γ [2] is listed as “weaker”.
